The experiment has as its target B61/B51 (on B61/B51-matched allogeneic LCL). Briefly: cell-based or functional assay.

Take QEPLYPVQVSSADARLMVFDKTEGTWRLLCSSRSNAR [hepsin peptide 48-84 (residues 48-84 of hepsin)]: the Percent cell killing; B61/B51-matched allogeneic LCL + peptide; CD8+ T cells of donor came out at 27.1%.

(Values after patent US20080152663A1.)
